In the nanobody polyreactivity screen of Harvey et al. (2022):

Assay: yeast display, Sf9 membrane polyspecificity reagent, FACS + sequencing; frameworks hold sequencing errors
Summary of the method: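 Using colony PCR, genes from sorted yeast display clones were amplified, then sequenced on MiSeq at 2 × 250 and filtered by CDR length. The clones had been stained with 10% biotinylated, detergent-solubilized Sf9 membrane reagent for 1 hour at 4 °C and sorted by FACS into low and high (top ~1%) gates on anti-HA and streptavidin fluorescence. Polyreactivity labels come from the gate of origin.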

With “QVQLVESGGGLVQAGGSLRLSCAASGRILSKNAMGWYRQAPGKERELVAAIRGSTGITYYADSVKGRFTISRDNAKNTVYLQMNSLKPEDTAVYYCAAVVQGGFYWGQGTQVTVSS” the “polyreactivity (PSR sort gate)” value was “high polyreactivity”.

For “QVQLVESGGGLVQAGGSLRLSCAASGFIFLGKAMGWYRQAPAKERELVAAISSGGSTYADSVKGRFTISSDNAKNTVYLQMYSLKPEDTAVYYFAVDRAFRAQNYHEYYYWGQGTQVTVSS”, the “polyreactivity (PSR sort gate)” value was “low polyreactivity”.

In the case of “QDQLVESGGGLVQAGGSLRLSCAASRSIFPLYAMGWYRQATGKEREMVAAISYSGGRTYYADSVKGRFTISRDNAKNTVYLQMNSLKPEDTAVYYCNTRQRVIDDYWGQGTQVSVSS”, the “polyreactivity (PSR sort gate)” value is reported as “high polyreactivity”.

With “QVQLVESGGGIVQAGGSLRLSCAASGSIFVENAMGWTRQAPGKERELVAAISSDASTNYADSVKGRFTISRDNAKNTVFLQRNSLKPEDTAVYYCAAGYNQHGQYDYWGQGTQVTVSS” the “polyreactivity (PSR sort gate)” value was “low polyreactivity”.

In the case of “QVQLVESGGGLVQAGGSLRLSCAASGSIFPPYTMGWFRQAPGKELELVATISSTGITNYADSVKGRFTNSRDNAKNTVYLQMNSLKQEDTAVYYCAAGLWYSFDYWGQGTQVTVSS”, the “polyreactivity (PSR sort gate)” value is reported as “high polyreactivity”.

With “QVQLVESGGGLVQAGGSLRLSCAASGSTFSYYAMGWYRQAPGKERELVAAISRTAVSTYYADSVKGRFTISRDNAKNTVYLQMNSLKPEDTAVYYCAASHFHGYSLGYDYWGQGTQVTVSS” the “polyreactivity (PSR sort gate)” value was “high polyreactivity”.

In the case of “QVQLVESGGGLVQAGGSLRLSCAASGRIIRINAMGWYRQAPGKERELVAAITRGGTTYADSVKGRFTISRDNAKNTVYLQMNSLKPEDTAVYYCNARTGRSPTGFRYWGQGTQVTVSS”, the “polyreactivity (PSR sort gate)” value is reported as “high polyreactivity”.

With “QVHLVESGGGLVQAGGSLRLSCAASGSIFGYYTMGWYRQAPGKERELVAGIDFITTSTYYADSVKGRFTISRDNAKNTVSLQMNSQKPEDTAVYYCAAYGPLTGYDYWGQGTQVTVSS” the “polyreactivity (PSR sort gate)” value was “low polyreactivity”.

With “QVQLVESGGGLVQAGGSLRLSCATSGSIFYRYAMGWYRQAPGKEREFVAAIRWRGGSTYYADSVKGRFTISRDNAKNTVYLQMNSLKPEDTAVYYCAAPTVQSYNYWGQGTQVTVSS” the “polyreactivity (PSR sort gate)” value was “high polyreactivity”.

In the case of “QVQLHESVGRLVQEGGGLRVSCAASGSISSTGFMGWSRQAPGKEGEPVAAIAPGTTTYYADSVKGRFTISRDNAKNTVYLQMNCLRPEDTAVYYCAVYTDNRVAFLYWGQGTQVTVSS”, the “polyreactivity (PSR sort gate)” value is reported as “low polyreactivity”.

In the case of “QVQLVESVRGSVQAGGSLRLSCAASGSTFYENAMGWYRPAPGKVRELVAAITWSGGRTYYADSVKGRFTISRDNAKNTVYLQMYSLKAEDTAVYYCNARARSRKFYYWGQGTQVTVSS”, the “polyreactivity (PSR sort gate)” value is reported as “high polyreactivity”.

With “QVQLVESGGGLVQAGGSLRLSCAASGFTFDWYAMGWYRQAPGKERELVAAMYYADSVKGRFTISRDNAKNTVYLQMNSLKPEDTAVYYCNAGGYFFPTVYHYGYWGQGTQVTVSS” the “polyreactivity (PSR sort gate)” value was “low polyreactivity”.

For “QVQLVESGGGLVQAGGSLRLSCAGSGSTFRYYVLGWYRAAPGKDRVLVARITSAASTNYADSVKGRFTISRDNAKTTVNLQMNSLKPEDTPVYYCAADAYWIRSRFLYRIRYNYWGQGTQVTVSS”, the “polyreactivity (PSR sort gate)” value was “high polyreactivity”.

With “QVQLVESGGGLVQAGGSLRLSCAASGRIFSSYAMGWYRKAPGKERELVAAIRRGGGSTSYADSVKGRFTISRDNAKNTVYLQMNSLKPEDTAVYYCAADSPRGQVHYIGGYWGQGTQVTVSS” the “polyreactivity (PSR sort gate)” value was “low polyreactivity”.

With “QVQLVESGGGLVQAGGSLRLSCAASGRIFYTYAMGWYRQAPGKERELVAAIRWSSGSTFYADSVKGRFTISRDNAKNSVYLQMNSLKPEDTAVYYCATEYYPQYQSTGWYDYWGQGTQVTVSS” the “polyreactivity (PSR sort gate)” value was “low polyreactivity”.

For “QVQLVESGGGLVQAGGSLRLSCAASGSIFSYYAMGWYRQAPGKERELVAVISSSGGRTYYADSVKGRFTISRDNAKNTVYLQMNSLKPEDTAVYYCAAKYRVFYGFDYWGQGTQVTVSS”, the “polyreactivity (PSR sort gate)” value was “high polyreactivity”.

In the case of “QVQLVESGGGLVQAGGSLRLSCAASGSIFIGNAMGWYRQAPGKERELVAAITWSGGSTTYADSVKGRFTISRDNAKNTVYLQMNSLKPEDTAVYYCNASIYQRYDYWGQGTQVTVSS”, the “polyreactivity (PSR sort gate)” value is reported as “low polyreactivity”.

For “QVQLVESGGGLVQAGGSLRLSCAASGRILRSYAMGWYRPAPGKERELVAAIRWRGGSTYYADSVKGRFTISRDNAKNTVYLQMNSLKPEDTAVYYCAARSYYRQSAGDYWGQGTQVTVSS”, the “polyreactivity (PSR sort gate)” value was “high polyreactivity”.

With “QVQLVESGGGLVQAGGSLRLSCAASGITFYRYAMGWYRQAPGKERELVAAITRSVGRTYYADSVKGRFTISRDNAKNTVYLQMNSLKPEDTAVYYCAADSPYYRGDYYWGLGTQVTVSS” the “polyreactivity (PSR sort gate)” value was “high polyreactivity”.

With “QVQLVESGGGLVQAGGSLRLSCAASGLILGYYAMGWYRQAPGKERELVAAISSTGSTNYADSVKGRFTISRDNAKNTVYLQMNSLKPEDTAVYYCAAVPPRKDYQHMDYWGQGTQVTVSS” the “polyreactivity (PSR sort gate)” value was “low polyreactivity”.

With “QVQLVESGGGLVQAGGSLRLSCAASGSIFEPYAMGWYRQAPGKERELVAAISSDGTTNYADSVKGRFTISRDNAKNTVYLQMNSLKPEDTAVYYCAADVFNWGYYYWGQGTQVTVSS” the “polyreactivity (PSR sort gate)” value was “low polyreactivity”.

With “QVQLVESGGGLVQAGGSLRLSCAASGRTFRVYAMGGYRQAPGTERELVASISRRGAATYYADSVKGRFTISRDNAKNTVYRQMNSLKPEDTAVSDCAADRPYYSVSPNTEFEYWGQGTQVTVSS” the “polyreactivity (PSR sort gate)” value was “high polyreactivity”.

In the case of “QVQLVESGGGLVQAGGSLRLSCAASGRTSRVYAMGWYRQAPGTERELVAAITWRGGNTYYADSVKGRFTISRDHAKNTVYLQMNSMKPEDTAVYYCAADPWSYGSWHGDSWGQGTQVTVSS”, the “polyreactivity (PSR sort gate)” value is reported as “high polyreactivity”.

With “QVQLVESGGGLVQAGGSLRLSCAATGFTFHHYVMGWYRHAHGKEREFVASIRWRGGSTYYADSVKGRFTISRDNAKNTVYLQMNSLKPEDTAVYYCAADSFTYWSWLHGYWGQGTQVTVSS” the “polyreactivity (PSR sort gate)” value was “high polyreactivity”.

For “QVQLEESGGGLVQGGCSLRLSCAGSGSIFIQYDMGWYRQAPVIERELVATIRSGDSTTYADSVKGRFTISRDNAKNTVYLQMNSLKPEDTAVYYCAKDYRLDYDYDYWGQGTQVTVSS”, the “polyreactivity (PSR sort gate)” value was “low polyreactivity”.

For “QVQLVESVGGLVQAVGSLRLSCAASGNTFYRYAMGWYIQAPGKERELVAAITWRSTYYADSVKGRFTISRDNAKNTVYLQMNSLKPEDTAVYYCAVSVRPYVIYLYDYWGQGTQVTVSS”, the “polyreactivity (PSR sort gate)” value was “high polyreactivity”.

With “QVQLVESGGGLVQAGGSLRLSCAASGIIYGNVMGWYRQAPGKESELVAAITGSGGSTYYADSVKGRFTISRDNAKNTVYLQMNSLKPEDTAVYYCAADLALYNTLYLTLPDYYWGEGTQVTVSS” the “polyreactivity (PSR sort gate)” value was “low polyreactivity”.

For “QDQLVESGVGLVQAGGSLRLSCAASGSIFHGNAMGWYRQAPGKERELVATISSGGSTYYADSVKGRFTISRDNAKNTVYLQMNSLKPEDTAVYYCAAERFWPYKSYYWGQGTQVTVSS”, the “polyreactivity (PSR sort gate)” value was “low polyreactivity”.

In the case of “QVQLVESGGGLVQAGGTLRFSCAASGFTFYVYAMGWYRQAPGKERELVAAISKSGGSTYYADSVKGRFTISRDNAKNTVYLQMNSLKPEDTAVYYCAVYDKRSGYRGGHRYNSWGQGTQVTVSS”, the “polyreactivity (PSR sort gate)” value is reported as “high polyreactivity”.

In the case of “QVQLVESGGGLVQAGGTLRLSCAASGSTFRYNAMGWYRQEPGKEWELVAAITDSGSSTYYADSVKGRFTISRDNAKNTVYLQMNSLKPEDTAVYYCAAAGSRYAWGYVYWGQGTQVTVSS”, the “polyreactivity (PSR sort gate)” value is reported as “high polyreactivity”.

With “QVQLVESGGGLVQAGGSLRLSCAASGRIFTSNAMGWYRQAPGKERELVAAISGSGGRTYYADSVKGRFTISRDNAKNTVYLQMNSLKPEDTAVYYCAVGTRVKYDYWGQGTQVTVSS” the “polyreactivity (PSR sort gate)” value was “high polyreactivity”.

With “QVQLVESGGGLVQAGGSLRLSCASSGRTFRYNAKGWYRQAPGKERELVAAISWSGGGTYYSDSVKGRFTISRDNAKNTVYLQMNSLKPEDTAVYYCAAEEQIPLTNNSKYYYWGQGTQVTVSS” the “polyreactivity (PSR sort gate)” value was “low polyreactivity”.

With “QVQLVESGGGLVQAGGSLRLICAASGSTFPPNAMGWYRQAPGKERELVAAISKRGGSTTYSDSVKGRFTISRDYAKNTVYLQMNSLIPEDTAVYYCAARRSGRSHYEKMDYWGQGTQVSVSS” the “polyreactivity (PSR sort gate)” value was “low polyreactivity”.

With “QVQLVESGGGLVQAGGSLRLSCDASGFTFYSYARGWYRQAPGKEREFVASISRSGGSTYYADSVKGRFTISRDNAKYTVYLQMNSLKAEDTEVYYCAARSVRDRDGGDYWGQGTQVTVSS” the “polyreactivity (PSR sort gate)” value was “high polyreactivity”.

In the case of “QVQLVESGGGLVQAGGSLRLSCSASGITSKNYAMGCYRQAPGKERELVAVISGRGGSTYYADSVKGRFTISRDNAKNTVYLQMNSLKPVDTAVYYCAAYGNQRRGAYPYKYDYWGQGTQVTVSS”, the “polyreactivity (PSR sort gate)” value is reported as “high polyreactivity”.

In the case of “QVQLVESGGGLVQAGGSLRLSCAASGNIFSYNAMGWYRQAPGKEREFVAAITFSSDRTYYADSVKGRFTISRDNAKNTVYLQMNSLKPEDTAVYYCAADTRYINYKRYYYWGQGTQVTVSS”, the “polyreactivity (PSR sort gate)” value is reported as “high polyreactivity”.

With “QVQLVESGGGLVQAGGSLRLTCAASGRTFGHYAMGWYRQAPGKERELVAAISQRGGGTYYADSVKGRFTISRDNAKNTVYLQMNSLKPEDTAVYYCAADFGNSPYIKDYYYWGQGTQVTVSS” the “polyreactivity (PSR sort gate)” value was “low polyreactivity”.

In the case of “QVQLVESGGGLVQAGGSLRLSCAASGSIFTFYTMGWYRQAPGKERELVAAINWSGSRTYYADSVKGRFTISRDNAKNTVYLQMNSLIQEDTAVYYCNVRCYYKRRYGWYSYRYGYWGQGTQVTVSS”, the “polyreactivity (PSR sort gate)” value is reported as “high polyreactivity”.

With “QVQLVESGGGLVQAGGSLRLTCAASGSTFYRYAMGWYRQAPGKERELVAAISTSGGRTYYADSVKGRFTISRDNAKNTVYLQMNSLKPEDTAVYYCAADQYRYYRSTYDYWGQGTQVTVSS” the “polyreactivity (PSR sort gate)” value was “high polyreactivity”.

In the case of “QVQLVESGGGFVQAGGSLRLSCAASGSTFYTYTLGWYRQAPGKERELVAAISSSGGDTYYADSVKGRFTISRDNAKNTVYLQMNSLKPEDTAVYYCAALGAFPSLEFDYWGQGTQVTVSS”, the “polyreactivity (PSR sort gate)” value is reported as “low polyreactivity”.

With “QVQLVDSGGGLVQAGGSLRLSCAASGRTFGGNAIGRYIQAPGKETELVAGINISGGSTNYADSVKGRFTISRDNAMNTVYLQMNSLKPEDTPVYYCNADTAVYAWDDDYWGQGTQVTVSS” the “polyreactivity (PSR sort gate)” value was “low polyreactivity”.

With “QVQLVESGGGLVQAGGSLRLSCAASGRIFAYYAMGWYRQAPGKERELVAAISGGGGSTYYADSVKGRFTISRDNAKNTVYLQMNSLKPEDTAVYYCAARYTVYSATGRYYYWGQGTQVTVSS” the “polyreactivity (PSR sort gate)” value was “high polyreactivity”.

In the case of “QVQLVESGGGLVQAGGSLRLSCAASGIIFRYAMGWYRQAPGKERELVARITVGSTYYADSVKGRFTISRDNAKNTVYLQMNSLKPEDTAVYYCAARVQHYLATDDYWGQGTQVTVSS”, the “polyreactivity (PSR sort gate)” value is reported as “low polyreactivity”.
